Test results published in IntAct's records for PubMed 21866104.

B1: Golgi to ER traffic protein 2 (Saccharomyces cerevisiae), P40056 (parent)
chain: MSELTEAEKRRLLRERRQKKFSNGGASSRLNKITGQASSHLNAESPLDAPSAAKTTPPASVHSATPDIKEDSNVAPQLDLLKQLAAMQGQGTGKSTPQDSSTPDLLSLLSSMNTGMPSAEGTPSFGQAAPAAPINQAALDYHDYLLNRLKAWTILVKWVFFLLPYLYLITRPNSSVWPAYAFTQSAWFAPLRNPSNFTRIFATFEFLSISIYYQLLKNVEHKSKIKNLQDTNKLVKLVSLVPEGVIPVANLKGKLITLLQYWDLLSMLITDISFVLIVLGLLTYL
partner: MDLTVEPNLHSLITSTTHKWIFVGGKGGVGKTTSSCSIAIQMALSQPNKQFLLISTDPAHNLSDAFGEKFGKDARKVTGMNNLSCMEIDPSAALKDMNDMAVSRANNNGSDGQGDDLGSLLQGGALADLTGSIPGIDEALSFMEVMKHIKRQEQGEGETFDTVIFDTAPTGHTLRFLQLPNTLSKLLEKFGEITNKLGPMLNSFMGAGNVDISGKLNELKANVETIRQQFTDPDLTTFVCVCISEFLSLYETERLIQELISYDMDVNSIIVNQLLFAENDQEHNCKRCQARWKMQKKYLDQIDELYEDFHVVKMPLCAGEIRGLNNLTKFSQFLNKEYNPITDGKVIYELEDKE
B2: Golgi to ER traffic protein 1 (Saccharomyces cerevisiae), P53192 (parent)
chain: MHWAAAVAIFFIVVTKFLQYTNKYHEKWISKFAPGNELSKKYLAKVKERHELKEFNNSISAQDNYAKWTKNNRKLDSLDKEINNLKDEIQSENKAFQAHLHKLRLLALTVPFFVFKIMYGKTPVYKLSSSTSTLFPTFVSGVWSQGWLYVLLHPLRTISQKWHIMEGKFGASKFDDMALQSVSLGIWVWALMNVINGVEFIVKQLFLTPKMEAPASVETQEEKALDAVDDAIILD
partner: B1 partner

Variants of: B1
Conditions: with get3_yeast GET3, Q12154

effect of a mutation on the interaction | Variant
disrupting interaction | MSELTEAEKRRLLREREQKKFSNGGASSRLNKITGQASSHLNAESPLDAPSAAKTTPPASVHSATPDIKEDSNVAPQLDLLKQLAAMQGQGTGKSTPQDSSTPDLLSLLSSMNTGMPSAEGTPSFGQAAPAAPINQAALDYHDYLLNRLKAWTILVKWVFFLLPYLYLITRPNSSVWPAYAFTQSAWFAPLRNPSNFTRIFATFEFLSISIYYQLLKNVEHKSKIKNLQDTNKLVKLVSLVPEGVIPVANLKGKLITLLQYWDLLSMLITDISFVLIVLGLLTYL [R17E]

Variants of: B2
Conditions: with get3_yeast GET3, Q12154

effect of a mutation on the interaction | Variant
disrupting interaction | MHWAAAVAIFFIVVTKFLQYTNKYHEKWISKFAPGNELSKKYLAKVKERHELKEFNNSISAQDNYAKWTKNNEKLDSLDKEINNLKDEIQSENKAFQAHLHKLRLLALTVPFFVFKIMYGKTPVYKLSSSTSTLFPTFVSGVWSQGWLYVLLHPLRTISQKWHIMEGKFGASKFDDMALQSVSLGIWVWALMNVINGVEFIVKQLFLTPKMEAPASVETQEEKALDAVDDAIILD [R73E]
